Data reported in patent US20260217779A1 (Chugai, published 2026).

T1: human CXCR3 (hCXCR3) on Ba/F3 transfectant cells (human, UniProt P49682 1-368)
T1 sequence: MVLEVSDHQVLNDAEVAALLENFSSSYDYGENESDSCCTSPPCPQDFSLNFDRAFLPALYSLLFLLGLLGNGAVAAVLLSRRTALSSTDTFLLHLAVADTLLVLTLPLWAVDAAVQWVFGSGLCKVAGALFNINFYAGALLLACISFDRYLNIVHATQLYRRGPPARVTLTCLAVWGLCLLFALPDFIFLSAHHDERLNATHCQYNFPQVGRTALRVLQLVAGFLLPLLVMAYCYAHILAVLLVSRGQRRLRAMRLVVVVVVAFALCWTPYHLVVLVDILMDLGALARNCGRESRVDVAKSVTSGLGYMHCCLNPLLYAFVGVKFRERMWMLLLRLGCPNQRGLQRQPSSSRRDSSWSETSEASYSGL


Biological target: T1, human CXCR3 (hCXCR3) on Ba/F3 …
Assay: cell-based or functional assay

Row | Activity retention rate at 33 nM | Activity retention rate at 100 nM | Activity retention rate at 300 nM | Luminescence value at 33 nM | Luminescence value at 100 nM | Luminescence value at 300 nM | Binder
1 | 52% | 75% | 72% | 3.97e+06 | 1.25e+07 | 8.95e+06 | hCXCL11.0048-G1T4k.one//VHn-G1T4h.one.H435R (Fc fusion) chain 1: FLPMFKRGRCLCIGPGVKAVKVADIEKASIMYPSNNCDKIEVIITLKENKGQRCLNPKSKQARLIIKKVERKNFEPKSSDKTHTCPPCPAPELRRGPSVFLFPPKPKDTLMISRTPEVTCVVVDVSHEDPEVKFNWYVDGVEVHNAKTKPREEQYNSTYRVVSVLTVLHQDWLNGKEYKCKVSNKGLPSSIEKTISKAKGQPREPQVCTLPPSREEMTKNQVSLWCLVKGFYPSDIAVEWESNGQPENNYKTTPPVLDSDGSFFLYSKLTVDKSRWQEGNVFSCSVMHEALHNHYTQKSLSLSP chain 2: EPKSSDKTHTCPPCPAPELRRGPSVFLFPPKPKDTLMISRTPEVTCVVVDVSHEDPEVKFNWYVDGVEVHNAKTKPREEQYNSTYRVVSVLTVLHQDWLNGKEYKCKVSNKGLPSSIEKTISKAKGQPREPQVYTLPPSRCEMTKNQVSLSCAVKGFYPSDIAVEWESNGQPENNYKTTPPVLDSDGSFFLVSKLTVDKSRWQEGNVFSCSVMHEALHNRYTQKSLSLSP
2 | 77% | 90% | 67% | 5.88e+06 | 1.51e+07 | 8.33e+06 | hCXCL11.0052-G1T4k.one//VHn-G1T4h.one.H435R (Fc fusion) chain 1: FQPMFKRGRCLCIGPGVKAVKVADIEKASIMYPSNNCDKIEVIITLKENKGQRCLNPKSKQARLIIKKVERKNFEPKSSDKTHTCPPCPAPELRRGPSVFLFPPKPKDTLMISRTPEVTCVVVDVSHEDPEVKFNWYVDGVEVHNAKTKPREEQYNSTYRVVSVLTVLHQDWLNGKEYKCKVSNKGLPSSIEKTISKAKGQPREPQVCTLPPSREEMTKNQVSLWCLVKGFYPSDIAVEWESNGQPENNYKTTPPVLDSDGSFFLYSKLTVDKSRWQEGNVFSCSVMHEALHNHYTQKSLSLSP chain 2: EPKSSDKTHTCPPCPAPELRRGPSVFLFPPKPKDTLMISRTPEVTCVVVDVSHEDPEVKFNWYVDGVEVHNAKTKPREEQYNSTYRVVSVLTVLHQDWLNGKEYKCKVSNKGLPSSIEKTISKAKGQPREPQVYTLPPSRCEMTKNQVSLSCAVKGFYPSDIAVEWESNGQPENNYKTTPPVLDSDGSFFLVSKLTVDKSRWQEGNVFSCSVMHEALHNRYTQKSLSLSP
3 | 84% | 89% | 82% | 6.46e+06 | 1.49e+07 | 1.02e+07 | hCXCL11.0051-G1T4k.one//VHn-G1T4h.one.H435R (Fc fusion) chain 1: FPPMFKRGRCLCIGPGVKAVKVADIEKASIMYPSNNCDKIEVIITLKENKGQRCLNPKSKQARLIIKKVERKNFEPKSSDKTHTCPPCPAPELRRGPSVFLFPPKPKDTLMISRTPEVTCVVVDVSHEDPEVKFNWYVDGVEVHNAKTKPREEQYNSTYRVVSVLTVLHQDWLNGKEYKCKVSNKGLPSSIEKTISKAKGQPREPQVCTLPPSREEMTKNQVSLWCLVKGFYPSDIAVEWESNGQPENNYKTTPPVLDSDGSFFLYSKLTVDKSRWQEGNVFSCSVMHEALHNHYTQKSLSLSP chain 2: EPKSSDKTHTCPPCPAPELRRGPSVFLFPPKPKDTLMISRTPEVTCVVVDVSHEDPEVKFNWYVDGVEVHNAKTKPREEQYNSTYRVVSVLTVLHQDWLNGKEYKCKVSNKGLPSSIEKTISKAKGQPREPQVYTLPPSRCEMTKNQVSLSCAVKGFYPSDIAVEWESNGQPENNYKTTPPVLDSDGSFFLVSKLTVDKSRWQEGNVFSCSVMHEALHNRYTQKSLSLSP
4 | 39% | 58% | 42% | 2.98e+06 | 9.65e+06 | 5.27e+06 | hCXCL11.0055-G1T4k.one//VHn-G1T4h.one.H435R (Fc fusion) chain 1: FTPMFKRGRCLCIGPGVKAVKVADIEKASIMYPSNNCDKIEVIITLKENKGQRCLNPKSKQARLIIKKVERKNFEPKSSDKTHTCPPCPAPELRRGPSVFLFPPKPKDTLMISRTPEVTCVVVDVSHEDPEVKFNWYVDGVEVHNAKTKPREEQYNSTYRVVSVLTVLHQDWLNGKEYKCKVSNKGLPSSIEKTISKAKGQPREPQVCTLPPSREEMTKNQVSLWCLVKGFYPSDIAVEWESNGQPENNYKTTPPVLDSDGSFFLYSKLTVDKSRWQEGNVFSCSVMHEALHNHYTQKSLSLSP chain 2: EPKSSDKTHTCPPCPAPELRRGPSVFLFPPKPKDTLMISRTPEVTCVVVDVSHEDPEVKFNWYVDGVEVHNAKTKPREEQYNSTYRVVSVLTVLHQDWLNGKEYKCKVSNKGLPSSIEKTISKAKGQPREPQVYTLPPSRCEMTKNQVSLSCAVKGFYPSDIAVEWESNGQPENNYKTTPPVLDSDGSFFLVSKLTVDKSRWQEGNVFSCSVMHEALHNRYTQKSLSLSP
5 | 42% | 63% | 51% | 3.24e+06 | 1.05e+07 | 6.34e+06 | hCXCL11.0054-G1T4k.one//VHn-G1T4h.one.H435R (Fc fusion) chain 1: FSPMFKRGRCLCIGPGVKAVKVADIEKASIMYPSNNCDKIEVIITLKENKGQRCLNPKSKQARLIIKKVERKNFEPKSSDKTHTCPPCPAPELRRGPSVFLFPPKPKDTLMISRTPEVTCVVVDVSHEDPEVKFNWYVDGVEVHNAKTKPREEQYNSTYRVVSVLTVLHQDWLNGKEYKCKVSNKGLPSSIEKTISKAKGQPREPQVCTLPPSREEMTKNQVSLWCLVKGFYPSDIAVEWESNGQPENNYKTTPPVLDSDGSFFLYSKLTVDKSRWQEGNVFSCSVMHEALHNHYTQKSLSLSP chain 2: EPKSSDKTHTCPPCPAPELRRGPSVFLFPPKPKDTLMISRTPEVTCVVVDVSHEDPEVKFNWYVDGVEVHNAKTKPREEQYNSTYRVVSVLTVLHQDWLNGKEYKCKVSNKGLPSSIEKTISKAKGQPREPQVYTLPPSRCEMTKNQVSLSCAVKGFYPSDIAVEWESNGQPENNYKTTPPVLDSDGSFFLVSKLTVDKSRWQEGNVFSCSVMHEALHNRYTQKSLSLSP
6 | 30% | 51% | 64% | 2.32e+06 | 8.49e+06 | 7.92e+06 | hCXCL11.0050-G1T4k.one//VHn-G1T4h.one.H435R (Fc fusion) chain 1: FNPMFKRGRCLCIGPGVKAVKVADIEKASIMYPSNNCDKIEVIITLKENKGQRCLNPKSKQARLIIKKVERKNFEPKSSDKTHTCPPCPAPELRRGPSVFLFPPKPKDTLMISRTPEVTCVVVDVSHEDPEVKFNWYVDGVEVHNAKTKPREEQYNSTYRVVSVLTVLHQDWLNGKEYKCKVSNKGLPSSIEKTISKAKGQPREPQVCTLPPSREEMTKNQVSLWCLVKGFYPSDIAVEWESNGQPENNYKTTPPVLDSDGSFFLYSKLTVDKSRWQEGNVFSCSVMHEALHNHYTQKSLSLSP chain 2: EPKSSDKTHTCPPCPAPELRRGPSVFLFPPKPKDTLMISRTPEVTCVVVDVSHEDPEVKFNWYVDGVEVHNAKTKPREEQYNSTYRVVSVLTVLHQDWLNGKEYKCKVSNKGLPSSIEKTISKAKGQPREPQVYTLPPSRCEMTKNQVSLSCAVKGFYPSDIAVEWESNGQPENNYKTTPPVLDSDGSFFLVSKLTVDKSRWQEGNVFSCSVMHEALHNRYTQKSLSLSP
7 | 8% | 26% | 60% | 595000 | 4.26e+06 | 7.43e+06 | hCXCL11.0053-G1T4k.one//VHn-G1T4h.one.H435R (Fc fusion) chain 1: FRPMFKRGRCLCIGPGVKAVKVADIEKASIMYPSNNCDKIEVIITLKENKGQRCLNPKSKQARLIIKKVERKNFEPKSSDKTHTCPPCPAPELRRGPSVFLFPPKPKDTLMISRTPEVTCVVVDVSHEDPEVKFNWYVDGVEVHNAKTKPREEQYNSTYRVVSVLTVLHQDWLNGKEYKCKVSNKGLPSSIEKTISKAKGQPREPQVCTLPPSREEMTKNQVSLWCLVKGFYPSDIAVEWESNGQPENNYKTTPPVLDSDGSFFLYSKLTVDKSRWQEGNVFSCSVMHEALHNHYTQKSLSLSP chain 2: EPKSSDKTHTCPPCPAPELRRGPSVFLFPPKPKDTLMISRTPEVTCVVVDVSHEDPEVKFNWYVDGVEVHNAKTKPREEQYNSTYRVVSVLTVLHQDWLNGKEYKCKVSNKGLPSSIEKTISKAKGQPREPQVYTLPPSRCEMTKNQVSLSCAVKGFYPSDIAVEWESNGQPENNYKTTPPVLDSDGSFFLVSKLTVDKSRWQEGNVFSCSVMHEALHNRYTQKSLSLSP
8 | 66% | 90% | 75% | 5.1e+06 | 1.5e+07 | 9.32e+06 | hCXCL11.0049-G1T4k.one//VHn-G1T4h.one.H435R (Fc fusion) chain 1: FMPMFKRGRCLCIGPGVKAVKVADIEKASIMYPSNNCDKIEVIITLKENKGQRCLNPKSKQARLIIKKVERKNFEPKSSDKTHTCPPCPAPELRRGPSVFLFPPKPKDTLMISRTPEVTCVVVDVSHEDPEVKFNWYVDGVEVHNAKTKPREEQYNSTYRVVSVLTVLHQDWLNGKEYKCKVSNKGLPSSIEKTISKAKGQPREPQVCTLPPSREEMTKNQVSLWCLVKGFYPSDIAVEWESNGQPENNYKTTPPVLDSDGSFFLYSKLTVDKSRWQEGNVFSCSVMHEALHNHYTQKSLSLSP chain 2: EPKSSDKTHTCPPCPAPELRRGPSVFLFPPKPKDTLMISRTPEVTCVVVDVSHEDPEVKFNWYVDGVEVHNAKTKPREEQYNSTYRVVSVLTVLHQDWLNGKEYKCKVSNKGLPSSIEKTISKAKGQPREPQVYTLPPSRCEMTKNQVSLSCAVKGFYPSDIAVEWESNGQPENNYKTTPPVLDSDGSFFLVSKLTVDKSRWQEGNVFSCSVMHEALHNRYTQKSLSLSP
